Measured values reported in publication PMC10397247.

Key:
O6 = target: T1, O6; assay: two-hybrid library CCNG1;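 also: natural log of median RNA to DNA barcode read ratio; higher means stronger binding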
T1 chain: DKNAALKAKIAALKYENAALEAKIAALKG

O7 = target: T2, O7; assay: two-hybrid library CCNG1;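 also: natural log of median RNA to DNA barcode read ratio; higher means stronger binding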
T2 chain: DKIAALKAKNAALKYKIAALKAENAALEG

O8 = target: T3, O8; assay: two-hybrid library CCNG1;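 also: natural log of median RNA to DNA barcode read ratio; higher means stronger binding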
T3 chain: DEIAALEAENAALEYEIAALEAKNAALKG

O9 = target: T4, O9; assay: two-hybrid library CCNG1;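 also: natural log of median RNA to DNA barcode read ratio; higher means stronger binding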
T4 chain: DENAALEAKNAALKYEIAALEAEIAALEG

4H2553-AA = target: T5, 4H2553-AA; assay: two-hybrid library CCmax;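 also: natural log of median RNA to DNA barcode read ratio; higher means stronger binding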
T5 chain: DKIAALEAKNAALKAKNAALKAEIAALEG

4H2611-AA = target: T6, 4H2611-AA; assay: two-hybrid library CCmax; details: mean of both orientations;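 also: natural log of median RNA to DNA barcode read ratio; higher means stronger binding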
T6 chain: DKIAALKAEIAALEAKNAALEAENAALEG

4H2620-AA = target: T7, 4H2620-AA; assay: two-hybrid library CCmax; details: mean of both orientations
T7 chain: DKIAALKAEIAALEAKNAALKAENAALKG

4H2648-AA = target: T8, 4H2648-AA; assay: two-hybrid library CCmax; details: mean of both orientations
T8 chain: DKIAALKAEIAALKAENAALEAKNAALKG

4H2907-AA = target: T9, 4H2907-AA; assay: two-hybrid library CCmax; details: mean of both orientations
T9 chain: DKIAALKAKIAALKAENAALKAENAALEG

4H3056-AA = target: T10, 4H3056-AA; assay: two-hybrid library CCmax; details: mean of both orientations
T10 chain: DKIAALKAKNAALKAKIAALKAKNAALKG

4H3133-AA = target: T11, 4H3133-AA; assay: two-hybrid library CCmax; details: mean of both orientations
T11 chain: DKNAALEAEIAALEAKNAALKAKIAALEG

4H3162-AA = target: T12, 4H3162-AA; assay: two-hybrid library CCmax; details: mean of both orientations
T12 chain: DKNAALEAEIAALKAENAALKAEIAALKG

4H32-AA = target: T13, 4H32-AA; assay: two-hybrid library CCmax; details: mean of both orientations
T13 chain: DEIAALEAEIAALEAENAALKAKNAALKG

4H3378-AA = target: T14, 4H3378-AA; assay: two-hybrid library CCmax; details: mean of both orientations
T14 chain: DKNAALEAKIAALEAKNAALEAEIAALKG

4H340-AA = target: T15, 4H340-AA; assay: two-hybrid library CCmax; details: mean of both orientations
T15 chain: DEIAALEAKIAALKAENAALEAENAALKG

4H3413-AA = target: T16, 4H3413-AA; assay: two-hybrid library CCmax; details: mean of both orientations
T16 chain: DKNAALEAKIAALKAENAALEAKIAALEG

4H3588-AA = target: T17, 4H3588-AA; assay: two-hybrid library CCmax; details: mean of both orientations
T17 chain: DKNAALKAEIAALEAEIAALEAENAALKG

4H3606-AA = target: T18, 4H3606-AA; assay: two-hybrid library CCmax; details: mean of both orientations
T18 chain: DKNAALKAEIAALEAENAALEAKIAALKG

4H3631-AA = target: T19, 4H3631-AA; assay: two-hybrid library CCmax; details: mean of both orientations
T19 chain: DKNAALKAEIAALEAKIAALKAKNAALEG

4H3697-AA = target: T20, 4H3697-AA; assay: two-hybrid library CCmax; details: mean of both orientations
T20 chain: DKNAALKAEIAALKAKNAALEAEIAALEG

4H3718-AA = target: T21, 4H3718-AA; assay: two-hybrid library CCmax; details: mean of both orientations
T21 chain: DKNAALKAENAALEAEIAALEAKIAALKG

4H384-AA = target: T22, 4H384-AA; assay: two-hybrid library CCmax; details: mean of both orientations
T22 chain: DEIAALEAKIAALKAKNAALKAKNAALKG

4H3865-AA = target: T23, 4H3865-AA; assay: two-hybrid library CCmax; details: mean of both orientations
T23 chain: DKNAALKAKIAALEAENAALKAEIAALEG

4H697-AA = target: T24, 4H697-AA; assay: two-hybrid library CCmax; details: mean of both orientations
T24 chain: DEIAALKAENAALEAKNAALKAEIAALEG

4H982-AA = target: T25, 4H982-AA; assay: two-hybrid library CCmax; details: mean of both orientations
T25 chain: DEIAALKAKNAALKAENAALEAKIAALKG

4H3858-bA = target: T26, 4H3858-bA; assay: two-hybrid library CCNG1
T26 chain: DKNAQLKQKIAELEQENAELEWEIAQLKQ

4H3974-bA = target: T27, 4H3974-bA; assay: two-hybrid library CCNG1
T27 chain: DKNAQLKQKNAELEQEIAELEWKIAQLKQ

4H570-bA = target: T28, 4H570-bA; assay: two-hybrid library CCNG1
T28 chain: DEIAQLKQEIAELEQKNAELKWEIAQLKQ

4H850-bA = target: T29, 4H850-bA; assay: two-hybrid library CCNG1
T29 chain: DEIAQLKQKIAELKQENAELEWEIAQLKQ

P6SC2 = target: T30, P6SC2; assay: two-hybrid library CC1
T30 chain: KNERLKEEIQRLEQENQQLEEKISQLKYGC

P6mS = target: T31, P6mS; assay: two-hybrid library CC1; details: mean of both orientations
T31 chain: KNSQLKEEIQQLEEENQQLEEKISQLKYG

P7 = target: T32, P7; assay: two-hybrid library CC1; details: mean of both orientations
T32 chain: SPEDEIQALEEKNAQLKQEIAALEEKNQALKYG

P7mS = target: T33, P7mS; assay: two-hybrid library CC1; details: mean of both orientations
T33 chain: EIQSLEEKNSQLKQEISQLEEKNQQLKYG

P8 = target: T34, P8; assay: two-hybrid library CC1; details: mean of both orientations
T34 chain: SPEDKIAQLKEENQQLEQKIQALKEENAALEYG

P8mS = target: T35, P8mS; assay: two-hybrid library CC1; details: mean of both orientations
T35 chain: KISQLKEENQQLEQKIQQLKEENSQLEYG

P9 = target: T36, P9; assay: two-hybrid library CC1; details: mean of both orientations
T36 chain: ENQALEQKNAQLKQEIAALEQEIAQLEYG

B1: O6 (peptide)
chain: DKNAALKAKIAALKYENAALEAKIAALKG
B1 showed an interaction score (O6) of -2.52, an interaction score (O7) of -2.14 and an interaction score (O8) of -1.47. It also gave an interaction score (O9) of -0.62.

B2: 4H2553-AA (peptide)
chain: DKIAALEAKNAALKAKNAALKAEIAALEG
In the case of B2, the interaction score (4H2553-AA) is reported as -1.66, the interaction score (4H2611-AA) is reported as -1.68 and the interaction score (4H2620-AA) is reported as -1.7. It also gave an interaction score (4H2648-AA) of -0.498, an interaction score (4H2907-AA) of -1.73 and an interaction score (4H3056-AA) of -1.68. For the same binder, the interaction score (4H3133-AA) was -2.05, the interaction score (4H3162-AA) was -1.5 and the interaction score (4H32-AA) was -0.574. The interaction score (4H3378-AA) was -1.98, the interaction score (4H340-AA) was -0.687 and the interaction score (4H3413-AA) was -1.58. The interaction score (4H3588-AA) was -1.93, the interaction score (4H3606-AA) was 1.86 and the interaction score (4H3631-AA) was -1.73. For the same binder, the interaction score (4H3697-AA) was -2.21, the interaction score (4H3718-AA) was 1.12 and the interaction score (4H384-AA) was -1.95. For the same binder, the interaction score (4H3865-AA) was -1.79, the interaction score (4H697-AA) was -1 and the interaction score (4H982-AA) was 1.15.

B3: 4H3858-bA (peptide)
chain: DKNAQLKQKIAELEQENAELEWEIAQLKQ
With B3 the interaction score (4H3858-bA) was 0.569, the interaction score (4H3974-bA) was -0.665 and the interaction score (4H570-bA) was 1.16. The interaction score (4H850-bA) was -0.964.

B4: P6SC2 (peptide)
chain: T30 chain
Binder B4 has an interaction score (P6SC2) of -2.13, an interaction score (P6mS) of -2.75 and an interaction score (P7) of 0.0928. The interaction score (P7mS) was -1.75, the interaction score (P8) was -1.84 and the interaction score (P8mS) was -2.54. The interaction score (P9) was -1.47.
